From US20240360176

Tested on: pNaKtide

Src kinase (mouse, endogenous in the liver of C57BL/6J mice)
Src phosphorylation in mouse liver, ratio pSrc/pSrc+cSrc by Western blot: Src phosphorylation peaked in the HFD groups at week 20, with paucity on pSrc peak in the pNaKtide and Exercise groups
